Results on 21 variants are retold here after the supplement of paper PMC7125110.

Sequences and labels used below:
B1: glmS ribozyme (parent)
chain: AUAAAAGCGCCAGAACUACAGAAAUGUAGUUGACGAGGAGGAGGUUUAUCGAAUUUUCGGCGGAUGCCUCCAAA

What all share (conditions): with glucosamine-6-phosphate
The variants in data set [1] derive from B1. The data set can be described thus: self-cleavage kobs at 40 uM GlcN6P; higher = faster cleavage; RNA array. Put shortly:
(§1)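 Barcoded ribozyme variants on sequenced MiSeq chips were transcribed in situ by E. coli RNA polymerase and followed at 37 °C through a hybridised Cy3 probe. Glucosamine-6-phosphate at 40 μM to 10 mM in HEPES/KCl/Mg(OAc)2 buffer was flowed in, and tiles were imaged over ~14 h. Signals were normalised to baseline and to non-cleaving reference variants, and per-tile medians were fit to one- or two-exponential decays to give kobs. Weighted Michaelis–Menten fits across concentrations gave kcat and KM.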

In data set [2] the parent is B1. The data set can be described thus: self-cleavage kobs at 160 uM GlcN6P; higher = faster cleavage; RNA array. Put shortly:
as §1

Data set [3] covers variants of B1. Description: self-cleavage kobs at 640 uM GlcN6P; higher = faster cleavage; RNA array. The gist of the method:
as §1

Variants of B1 are the subject of data set [4]. The data set can be described thus: self-cleavage kobs at 10000 uM GlcN6P; higher = faster cleavage; RNA array. The gist of the method:
as §1

Variants of B1 are the subject of data set [5]. Description: self-cleavage kobs at 2500 uM GlcN6P; higher = faster cleavage; RNA array. Put shortly: as §1

± gives the standard error. Variants at the floor of the assay were thinned out.

Consider U30G G62A, for which the “self-cleavage kobs at 40 uM GlcN6P” value with glucosamine-6-phosphate [1] was below 1e-05 s⁻¹. In addition, the “self-cleavage kobs at 160 uM GlcN6P” value with glucosamine-6-phosphate [2] is below 1e-05 s⁻¹. For the same variant, the “self-cleavage kobs at 640 uM GlcN6P” value with glucosamine-6-phosphate [3] is below 1e-05 s⁻¹. Further, in the data set with glucosamine-6-phosphate [4], the “self-cleavage kobs at 10000 uM GlcN6P” value was below 1e-05 s⁻¹.

For A36G G41C G43C A48G, the “self-cleavage kobs at 40 uM GlcN6P” value in the data set with glucosamine-6-phosphate [1] was below 1e-05 s⁻¹. Besides, the “self-cleavage kobs at 2500 uM GlcN6P” value with glucosamine-6-phosphate [5] was below 1e-05 s⁻¹. In the data set with glucosamine-6-phosphate [4], the “self-cleavage kobs at 10000 uM GlcN6P” value was below 1e-05 s⁻¹.

Regarding U30C G35A, the “self-cleavage kobs at 40 uM GlcN6P” value in the data set with glucosamine-6-phosphate [1] is below 1e-05 s⁻¹. Besides, the “self-cleavage kobs at 160 uM GlcN6P” value in the data set with glucosamine-6-phosphate [2] was below 1e-05 s⁻¹. In addition, the “self-cleavage kobs at 640 uM GlcN6P” value in the data set with glucosamine-6-phosphate [3] was below 1e-05 s⁻¹. Moreover, the “self-cleavage kobs at 2500 uM GlcN6P” value with glucosamine-6-phosphate [5] is below 1e-05 s⁻¹. For the same variant, the “self-cleavage kobs at 10000 uM GlcN6P” value in the data set with glucosamine-6-phosphate [4] was below 1e-05 s⁻¹.

Regarding G37C G44A, in the data set with glucosamine-6-phosphate [1], the “self-cleavage kobs at 40 uM GlcN6P” value is below 1e-05 s⁻¹. Also, the “self-cleavage kobs at 160 uM GlcN6P” value with glucosamine-6-phosphate [2] was below 1e-05 s⁻¹. Further, the “self-cleavage kobs at 640 uM GlcN6P” value with glucosamine-6-phosphate [3] is below 1e-05 s⁻¹. Besides, the “self-cleavage kobs at 10000 uM GlcN6P” value with glucosamine-6-phosphate [4] was below 1e-05 s⁻¹.

A6G C50U C58U U65G: the “self-cleavage kobs at 40 uM GlcN6P” value with glucosamine-6-phosphate [1] is below 1e-05 s⁻¹. For the same variant, in the data set with glucosamine-6-phosphate [3], the “self-cleavage kobs at 640 uM GlcN6P” value is below 1e-05 s⁻¹. In addition, the “self-cleavage kobs at 10000 uM GlcN6P” value in the data set with glucosamine-6-phosphate [4] was below 1e-05 s⁻¹.

Turning to G9C G62U, the “self-cleavage kobs at 40 uM GlcN6P” value with glucosamine-6-phosphate [1] was below 1e-05 s⁻¹. Besides, in the data set with glucosamine-6-phosphate [2], the “self-cleavage kobs at 160 uM GlcN6P” value was below 1e-05 s⁻¹. Besides, in the data set with glucosamine-6-phosphate [3], the “self-cleavage kobs at 640 uM GlcN6P” value is below 1e-05 s⁻¹. In the data set with glucosamine-6-phosphate [4], the “self-cleavage kobs at 10000 uM GlcN6P” value was below 1e-05 s⁻¹.

For A14C G60U, the “self-cleavage kobs at 40 uM GlcN6P” value in the data set with glucosamine-6-phosphate [1] is below 1e-05 s⁻¹. Also, the “self-cleavage kobs at 160 uM GlcN6P” value in the data set with glucosamine-6-phosphate [2] was below 1e-05 s⁻¹. Moreover, in the data set with glucosamine-6-phosphate [3], the “self-cleavage kobs at 640 uM GlcN6P” value was below 1e-05 s⁻¹. In addition, the “self-cleavage kobs at 10000 uM GlcN6P” value with glucosamine-6-phosphate [4] was below 1e-05 s⁻¹.

As to G38U G41C G43A, the “self-cleavage kobs at 40 uM GlcN6P” value with glucosamine-6-phosphate [1] is below 1e-05 s⁻¹.

Consider A14C G59C, for which the “self-cleavage kobs at 40 uM GlcN6P” value with glucosamine-6-phosphate [1] is below 1e-05 s⁻¹. For the same variant, in the data set with glucosamine-6-phosphate [2], the “self-cleavage kobs at 160 uM GlcN6P” value is below 1e-05 s⁻¹. In addition, the “self-cleavage kobs at 640 uM GlcN6P” value in the data set with glucosamine-6-phosphate [3] was below 1e-05 s⁻¹. For the same variant, in the data set with glucosamine-6-phosphate [4], the “self-cleavage kobs at 10000 uM GlcN6P” value was below 1e-05 s⁻¹.

As for U30C G37U, the “self-cleavage kobs at 40 uM GlcN6P” value with glucosamine-6-phosphate [1] is below 1e-05 s⁻¹.

As for U30G C71U, the “self-cleavage kobs at 40 uM GlcN6P” value with glucosamine-6-phosphate [1] worked out at 0.00033 ± 5e-05 s⁻¹. In the data set with glucosamine-6-phosphate [2], the “self-cleavage kobs at 160 uM GlcN6P” value was determined as 0.000449 ± 0.00011 s⁻¹. For the same variant, the “self-cleavage kobs at 640 uM GlcN6P” value with glucosamine-6-phosphate [3] was 0.00135 ± 0.00022 s⁻¹. The “self-cleavage kobs at 2500 uM GlcN6P” value with glucosamine-6-phosphate [5] was determined as 0.00639 ± 0.0013 s⁻¹. The “self-cleavage kobs at 10000 uM GlcN6P” value in the data set with glucosamine-6-phosphate [4] is 0.00769 ± 0.0016 s⁻¹.

For the variant G29A A36U, the “self-cleavage kobs at 40 uM GlcN6P” value with glucosamine-6-phosphate [1] is below 1e-05 s⁻¹. Also, the “self-cleavage kobs at 640 uM GlcN6P” value with glucosamine-6-phosphate [3] was below 1e-05 s⁻¹. Further, the “self-cleavage kobs at 2500 uM GlcN6P” value in the data set with glucosamine-6-phosphate [5] is below 1e-05 s⁻¹.

For A14U A33U C34G G35C U69A, the “self-cleavage kobs at 40 uM GlcN6P” value with glucosamine-6-phosphate [1] turned out to be 3.35e-05 ± 1e-05 s⁻¹. Moreover, the “self-cleavage kobs at 10000 uM GlcN6P” value in the data set with glucosamine-6-phosphate [4] was 7.09e-05 ± 1.3e-05 s⁻¹.

In the case of G43U C58U, the “self-cleavage kobs at 40 uM GlcN6P” value with glucosamine-6-phosphate [1] is below 1e-05 s⁻¹. For the same variant, the “self-cleavage kobs at 160 uM GlcN6P” value in the data set with glucosamine-6-phosphate [2] is below 1e-05 s⁻¹. In addition, the “self-cleavage kobs at 640 uM GlcN6P” value in the data set with glucosamine-6-phosphate [3] was below 1e-05 s⁻¹. The “self-cleavage kobs at 10000 uM GlcN6P” value with glucosamine-6-phosphate [4] is below 1e-05 s⁻¹.

As for C58A U65A C67G, in the data set with glucosamine-6-phosphate [1], the “self-cleavage kobs at 40 uM GlcN6P” value was below 1e-05 s⁻¹.

As for C8A A36U A64U C70U, in the data set with glucosamine-6-phosphate [1], the “self-cleavage kobs at 40 uM GlcN6P” value is below 1e-05 s⁻¹. For the same variant, the “self-cleavage kobs at 640 uM GlcN6P” value with glucosamine-6-phosphate [3] is below 1e-05 s⁻¹. In addition, the “self-cleavage kobs at 2500 uM GlcN6P” value with glucosamine-6-phosphate [5] was below 1e-05 s⁻¹.

Turning to A6G C10A G13A G62A U65A, the “self-cleavage kobs at 40 uM GlcN6P” value in the data set with glucosamine-6-phosphate [1] is below 1e-05 s⁻¹. Also, in the data set with glucosamine-6-phosphate [4], the “self-cleavage kobs at 10000 uM GlcN6P” value is below 1e-05 s⁻¹.

As for G38A U49C, in the data set with glucosamine-6-phosphate [1], the “self-cleavage kobs at 40 uM GlcN6P” value was below 1e-05 s⁻¹. In the data set with glucosamine-6-phosphate [5], the “self-cleavage kobs at 2500 uM GlcN6P” value was below 1e-05 s⁻¹.

As to A12G U57A, the “self-cleavage kobs at 40 uM GlcN6P” value in the data set with glucosamine-6-phosphate [1] was below 1e-05 s⁻¹. In addition, the “self-cleavage kobs at 10000 uM GlcN6P” value in the data set with glucosamine-6-phosphate [4] was 4.27e-05 ± 9.1e-06 s⁻¹.

As to A6G U45A G60C, in the data set with glucosamine-6-phosphate [1], the “self-cleavage kobs at 40 uM GlcN6P” value was below 1e-05 s⁻¹. Further, the “self-cleavage kobs at 10000 uM GlcN6P” value with glucosamine-6-phosphate [4] was below 1e-05 s⁻¹.

In the case of A6U G35C G62A, the “self-cleavage kobs at 40 uM GlcN6P” value with glucosamine-6-phosphate [1] was below 1e-05 s⁻¹. Also, the “self-cleavage kobs at 160 uM GlcN6P” value with glucosamine-6-phosphate [2] was below 1e-05 s⁻¹. Also, in the data set with glucosamine-6-phosphate [3], the “self-cleavage kobs at 640 uM GlcN6P” value was below 1e-05 s⁻¹. For the same variant, in the data set with glucosamine-6-phosphate [5], the “self-cleavage kobs at 2500 uM GlcN6P” value was below 1e-05 s⁻¹. Further, the “self-cleavage kobs at 10000 uM GlcN6P” value in the data set with glucosamine-6-phosphate [4] is below 1e-05 s⁻¹.
